From article PMC4264193, “Structures of the Inducer-Binding Domain of Pentachlorophenol-Degrading Gene Regulator PcpR from Sphingobium chlorophenolicum” (International Journal of Molecular Sciences, 2014)

Target: the molecule itself
Experiment: SEC-MALS; 200 ug of PcpR loaded on a BioSep-SEC-S 2000 column, eluted isocratically at 0.5 mL/min; UV, refractometer and Dawn EOS light scattering detectors; Zimm fit; calculated mass ~50 kD

B1: PcpR inducer-binding domain (residues from 85 to the C-terminus of PcpR) (domain or fragment, Sphingobium chlorophenolicum L-1, UniProt P52679 85-307, looked up)
chain: RSELRFDPGTSNRNFRIAASDFGQALMLPRLYATLEETAPQVRVTGVNLRHGPLVEELESGSIDIAFGGFPTLSAGIKTQTLFREEYVCVMRQSHPALTHGLDLEAFRQCRHIIVTAHEFNHVHEQVEARLLELLPPESIRFTTENFLVSAVIAEETDVILTIPSRLARWFANRGGLTIFPVPIELPSIEVKQYWHERYDKDPGNIWLRRVIAKIGFQNPPAE
notes: PcpR, LysR-type transcription factor of Sphingobium chlorophenolicum L-1; Cloned into pET30-LIC and expressed as a C-terminal HIS6X fusion protein; also called PcpR IBD; source: E. coli BL21(DE3), purified (nickel-nitrilotriacetate column, Mono Q anion exchange)
stoichiometry N: 2
